From PMC8303780, “Mutational Analysis of Redβ Single Strand Annealing Protein: Roles of the 14 Lysine Residues in DNA Binding and Recombination In Vivo”
Substitutions are numbered along the chain they refer to.

How the values were obtained:
Assay in all cases: EMSA; strands added sequentially; Anisotropy: 50 mM Tris-HCl pH 7.5, 1 mM DTT, 0.1 mg/mL BSA, 10 nM FAM48, 23 °C (Kd per monomer); gel assay: 10 µM Redβ, 50 µM nt of each oligo, PBS, 37 °C, 1% agarose at 22 °C
Conditions in all cases: protein: recombinant; tags: 6xHis removed by thrombin; residual N-terminal GSH; label: 5'-Cy3 and 5'-Cy5; complementary 50-mers; annealed by protein
[1] = target: T1, Redβ K111A (bacteriophage λ, UniProt P03698 1-261, K111A)
T1 sequence: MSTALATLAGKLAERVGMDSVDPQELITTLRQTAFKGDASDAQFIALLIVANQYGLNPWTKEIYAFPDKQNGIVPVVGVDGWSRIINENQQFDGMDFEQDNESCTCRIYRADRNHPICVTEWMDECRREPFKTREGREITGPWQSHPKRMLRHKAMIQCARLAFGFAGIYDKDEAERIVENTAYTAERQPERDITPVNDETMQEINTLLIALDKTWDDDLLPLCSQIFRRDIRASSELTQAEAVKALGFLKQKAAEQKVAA

[2] = target: T2, Redβ K251A (bacteriophage λ, UniProt P03698 1-261, K251A)
T2 sequence: T1 sequence with A111K, K251A

[3] = target: T3, Redβ K61A (bacteriophage λ, UniProt P03698 1-261, K61A)
T3 sequence: T1 sequence with K61A, A111K

[4] = target: T4, Redβ K69A (bacteriophage λ, UniProt P03698 1-261, K69A)
T4 sequence: T1 sequence with K69A, A111K

[5] = target: T5, Redβ K132A (bacteriophage λ, UniProt P03698 1-261, K132A)
T5 sequence: T1 sequence with A111K, K132A

[6] = target: T6, Redβ K148A (bacteriophage λ, UniProt P03698 1-261, K148A)
T6 sequence: T1 sequence with A111K, K148A

B1: annealed duplex of Cy3 and Cy5 50-mers, strands added sequentially (dsDNA)
DNA 1: GCGGATGGCTTAGAGCAGAATCGCCCTGCATAGCTCGATTTTTGCGGATG
DNA 2: CCATCCGCAAAAATCGAGCTATGCAGGGCGATTCTGCTCTAAGCCATCCG
**Q.** Does B1 bind [1]?
**A.** no binding

**Q.** Does B1 bind [2]?
**A.** binds

**Q.** Does B1 bind [3]?
**A.** no binding

**Q.** Does B1 bind [4]?
**A.** binds

**Q.** Does B1 bind [5]?
**A.** no binding

**Q.** Does B1 bind [6]?
**A.** no binding
